Laboratory results published in US20250289896A1 (ANALYTICAL BIOSCIENCES SHANGHAI, published 2025).

T1: mCCR8 (UniProt P56484 1-353, limits assumed)
T1 construct: whole, on cells; also called 293T-mCCR8
T1 sequence (looked up): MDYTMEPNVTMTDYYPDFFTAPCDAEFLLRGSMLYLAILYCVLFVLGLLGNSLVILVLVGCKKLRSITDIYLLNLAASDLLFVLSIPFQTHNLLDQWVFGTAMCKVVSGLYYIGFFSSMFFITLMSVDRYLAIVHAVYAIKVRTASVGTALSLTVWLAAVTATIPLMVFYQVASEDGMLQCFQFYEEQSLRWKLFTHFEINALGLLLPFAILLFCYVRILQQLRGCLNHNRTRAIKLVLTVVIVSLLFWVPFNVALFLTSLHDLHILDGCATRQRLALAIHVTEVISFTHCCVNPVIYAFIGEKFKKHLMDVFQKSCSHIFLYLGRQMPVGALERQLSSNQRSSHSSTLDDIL


Assays:
mCCR8 = target: T1, mCCR8; experiment: flow cytometry, 293T cells with mCCR8
Description: (§1) Binding specificity of the anti-CCR8 antibodies (mAbs) was tested by FACS using several cell lines. […] The binding titration of the anti-CCR8 antibodies to CCR8 transfectants was performed by serial dilution of antibodies. The diluted antibody (50 μl) in flow cytometry buffer (PBS, 0.5% BSA, 1 mM EDTA) was incubated with cells (50 μl) at a concentration of 2 million cells/ml on ice for 30 min. After two washes with flow cytometry buffer, bound antibody was detected with Alexa647-labeled F(ab′)2 fragment goat anti-human IgG (Jackson ImmunoResearch #709-606-149) (1:500 dilution) for 20 minutes on ice. The fluorescence was measured on a Cytek Aurora cytometer, after two washes with flow cytometry buffer. The data were analyzed with GraphPad Prism 8.0 software to determine EC50 values.

cynomolgus macaque CCR8 = target: T2, cynomolgus macaque CCR8 (cynomolgus macaque, UniProt G7NYJ2 1-355); experiment: flow cytometry, 293T cells overexpressing cynomolgus CCR8
T2 construct: whole, on cells; Overexpressed on 293T cells (293T-cCCR8) and Jurkat cells (Jurkat-cynoCCR8); also called cCCR8; cyno CCR8
Description: as §1

[1] = target: T3, Human CCR8 (C-C chemokine receptor type 8) (human, UniProt P51685 1-355); experiment: flow cytometry, 293T cells overexpressing human CCR8
T3 construct: overexpressed on HEK293T (293T-hCCR8), Jurkat-hCCR8 and CHEM1-CCR8 cells; also called hCCR8
Description: as §1

T2 sequence (G7NYJ2 entry or part of it): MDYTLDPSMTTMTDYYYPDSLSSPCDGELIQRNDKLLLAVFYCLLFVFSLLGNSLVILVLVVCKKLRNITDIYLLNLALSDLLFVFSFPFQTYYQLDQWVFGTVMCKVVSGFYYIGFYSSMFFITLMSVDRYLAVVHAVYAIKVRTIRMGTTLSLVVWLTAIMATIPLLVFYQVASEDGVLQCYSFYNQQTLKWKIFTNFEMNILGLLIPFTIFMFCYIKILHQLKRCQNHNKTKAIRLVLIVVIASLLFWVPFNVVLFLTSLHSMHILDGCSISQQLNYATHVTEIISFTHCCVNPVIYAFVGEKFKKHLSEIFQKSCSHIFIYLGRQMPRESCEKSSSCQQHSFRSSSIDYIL
T3 sequence (P51685 whole entry): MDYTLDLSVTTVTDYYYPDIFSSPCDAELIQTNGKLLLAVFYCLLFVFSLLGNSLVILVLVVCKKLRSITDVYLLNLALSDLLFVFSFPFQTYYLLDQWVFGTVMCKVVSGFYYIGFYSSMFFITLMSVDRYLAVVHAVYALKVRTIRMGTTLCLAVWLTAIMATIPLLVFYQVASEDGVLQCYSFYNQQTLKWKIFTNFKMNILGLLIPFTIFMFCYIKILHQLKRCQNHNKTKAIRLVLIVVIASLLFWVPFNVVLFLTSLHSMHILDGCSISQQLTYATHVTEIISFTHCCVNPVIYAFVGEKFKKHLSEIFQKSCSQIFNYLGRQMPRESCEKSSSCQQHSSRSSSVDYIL

Binder	binding result (mCCR8)	EC50 (cynomolgus macaque CCR8) [nM]	EC50 [1] [nM]	EC50 (mCCR8) [nM]	binding result (cynomolgus macaque CCR8)	binding result [1]
ABC531 (antibody, human IgG1, kappa, V domains shown) VH: EVQLVESGGGVVQPGGSLRLSCAASGFTFSNYGMHWIRQAPGKGLEWIAMIYSDSSKMFYTDTVKGRFTISRDNSKNTLYLQMNSLRAEDTAVYYCAARDYGYKGAHYYVMDAWGQGTTVTVSS VL: DIQMTQSPSSLSASVGDRVTITCKSSQNINRYLNWYQQKPGKAPKLLIYNANNLQTGIPSRFSGSGSGTDFTFTISSLQPEDIATYYCLQHKSWPYTFGQGTKLEIKR	no binding	0.554	1.44			
ABC821 (antibody, human IgG1, kappa, V domains shown) VH: EVQLVESGGGLVQPGRSLKLSCVASGFTFNYYWMTWIRQAPGKGLEWVASITNTGDTTYYPDSVKGRFTISRHNAKSTLYLQMNSLRSEDTATYYCSRGDGGSSFWIAYWGQGTLVTVSS VL: DVVMTQTPVSLPVSLGGQASISCRSSQSLVHRSGNTYLHWYLQKPGQSPQLLIYRVSNRFSGGPDRFSGSGSGTTFTLKISRVEPEDLGDYYCLQTTHFPPTFGSGTKLEIKR				6.74	no binding	no binding
ABC818 (antibody, human IgG1, kappa, V domains shown) VH: EVQLVESGGGLVQPGRSLKLSCAASGFTFSDYYMAWVRQAPKKGLEWVASITYAGSKTYYGDSVKGRFTISRDDAKSTLYLQMNSLRSEDTATYYCARQDLYYGHNPYWYFDFWGPGTMVTVSS VL: DIVMTQSPTSMSISVGDRVTMNCKASQNVGSNVDWYQQKTGQSPKLLIYKTSSRFTGVPDRFTGSGSRTDFTFTISNMQAEDLALYYCVQSNSYPYTFGAGTKLELKR	no binding	0.537	0.744			

More lines, now with the values ahead:

binding result (mCCR8)	EC50 (cynomolgus macaque CCR8) [nM]	EC50 [1] [nM]	EC50 (mCCR8) [nM]	binding result (cynomolgus macaque CCR8)	binding result [1]	Binder
no binding	7.11	8.51				ABC819 (antibody, human IgG1, kappa, V domains shown) VH: EVQLVESGGGLMQPRRSLKLSCAASGFPFSDYNMAWVRQAPKKGLEWVASITYAGTKTYYGDSVKGRFTISRDDAKSTLYLQMNSLRSEDTATYYCARQDLYYGRNQYWYLDFWGPGTMVTVSS VL: DIVMTQSPTSMSKSVGDRVTMSCKASQNVGSNVDWYQQKTGQSPKLLIYKTSSRFTGVPDRFTGSGSRTDFTFTISSMQAEDLALYYCVQSNSYPYTFGAGTKLELRT
no binding	0.884	1.51				ABC823 (antibody, human IgG1, kappa, V domains shown) VH: EVQLVESGGGLVQPRRSLKLSCAASGFTFSDYYMAWVRQAPKKGLEWVASIGYEGSGVYYGDSVKGRFTISRDDAKSSLYLQMNSLRSEDTATYYCARQELYYGHNPYWYFDFWGPGTMVTVSS VL: DIVMTQSPTSMSISVGDRVTMNCKASQNVGSNVDWYQQKTGQSPKLLIYKTSSRFTGVPDRFTGSGSKTAFSFTISNMQAEDLAVYYCMQSNSYPYTFGAGTKLELKR
no binding	2.14	1.74				ABC527 (antibody, human IgG1, kappa, V domains shown) VH: EVQLVESGGGVVQPGRSLRLSCAASGFPFSFYGMAWVRQAPGKGLEWVASISYDGSDTYYRDSVKGRFTISRDNSKNTLYLQMNSLRAEDTAVYYCAKTSGYGSFDYWGQGTLVTVSS VL: DIVMTQTPLSLSVTPGQPASISCRSSRSLVHRNGDTYLHWYLQKPGQSPQLLIYRVSNRFAGVPDRFSGSGSGTDFTLKISRVEAEDVGVYYCLQGTHLPPTFGQGTKLEIKR
no binding	6.47	6.47				ABC815 (antibody, human IgG1, kappa, V domains shown) VH: VQLVESGGGLVQPGRSLKLSCAASGFTFSNYDMAWVRQVPTKGLEWVASVSPSAGTTYYRDSVKGRFTVSRDIAKSSLYLQMDSLRSEDTATYYCARHMIYRGYNYAVSYYVMDVWGQGASVTVSS VL: IQLTQSPSLLSASVGDRVTLTCKGSQNINSYLAWYQQKLGEAPKLLIYNTNSLQTGIPSRFSGSGSGTDYTLTISSLQPEDVATYFCYQYNNGYTWTFGGGTKLELKR
